Where no end group is shown, it is not given here.
Tests used:
normal PCSK9 (WT) [1] = biological target: T1, normal PCSK9 (WT) (Homo sapiens, UniProt Q8NBP7); experiment: Cellular diI-LDL uptake in FL-83B cells with WT PCSK9; format: cell-based, mouse; conditions: FL83B, WT 1.2 ug/ml, pre-incubated 3 hrs at 37 C, dose dependent manner (FIG. 7)
Procedure: (§1) After 16 h, dil-LDL (5 ug/ml) was added to the incubation mixtures. After 4 h, fluorescence was measured (Ex: 520 nm/Em: 575 nm; cutoff: 550 nm). Dil-LDL uptake is calculated as RFU corrected for the number of cells. The PCSK9 and −/+SRX55 [SEQ ID NO: 2] mixtures were pre-incubated for 3 hrs at 37 C prior to addition to the cells.
(§2) LDL internalization was measured by uptake of a fluorescently tagged LDL molecule (diI-LDL) in the absence of exogenous PCSK9 (Cnt), in the presence of exogenous PCSK9 (normal PCSK9=WT, D374Y mutant PCSK9=DY), or in the presence of PCSK9 and a tested peptide (indicated as SRX##, or SRX if a single peptide results is shown in a graph). […]
(§3) Peptide activity was assessed by culturing cells with: i) no SRX peptide/PCSK9 protein complex (control, Cnt); ii) PCSK9 protein; and iii) SRX peptide/PCSK9 complex. […]
(§4) Cells were cultured using one of the combinations of conditions described in the preceding paragraph for 16 hours. After 16 hours, a quantity of diI-LDL (Low density lipoprotein coupled with 1,1′-dioctadecyl-3,3,3′,3′-tetramethylindocarbocyanine perchlorate) needed to bring the media concentration to 5 ug/mL of diI-LDL was added to the culture well and cells continued to be cultured under these new conditions for 4 additional hours. […] Fluorescence of the diI-LDL in the specimens were quantified using excitation at 530 nm and resulting emission at 580 nm. […]

PCSK9 GOF-D374Y protein = PCSK9 GOF-D374Y protein (Homo sapiens, UniProt Q8NBP7, D374Y); experiment: Cellular diI-LDL uptake in HepG2 cells with PCSK9 GOF-D374Y; format: cell-based
Sequence of PCSK9 GOF-D374Y protein (Q8NBP7 153-692 D374Y): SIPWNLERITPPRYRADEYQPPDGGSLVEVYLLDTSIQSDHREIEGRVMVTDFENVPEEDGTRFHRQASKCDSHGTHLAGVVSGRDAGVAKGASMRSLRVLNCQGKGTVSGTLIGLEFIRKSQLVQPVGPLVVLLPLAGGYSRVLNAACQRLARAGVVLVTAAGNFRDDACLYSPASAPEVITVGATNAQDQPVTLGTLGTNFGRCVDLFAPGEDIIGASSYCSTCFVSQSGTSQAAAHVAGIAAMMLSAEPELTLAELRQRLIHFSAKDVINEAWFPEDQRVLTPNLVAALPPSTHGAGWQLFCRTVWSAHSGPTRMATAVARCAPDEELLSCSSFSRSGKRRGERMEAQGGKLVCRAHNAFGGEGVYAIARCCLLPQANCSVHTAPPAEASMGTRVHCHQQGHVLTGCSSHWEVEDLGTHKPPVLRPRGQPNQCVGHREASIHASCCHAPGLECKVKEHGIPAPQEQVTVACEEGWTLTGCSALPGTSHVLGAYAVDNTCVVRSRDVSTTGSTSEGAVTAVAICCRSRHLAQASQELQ
Procedure: […] After 16 h, dil-LDL (5 ug/ml) was added to the incubation mixtures. After 4 h, fluorescence was measured (Ex: 520 nm/Em: 575 nm; cutoff: 550 nm). Dil-LDL uptake is calculated as RFU corrected for the number of cells.
as §1, §2, §3
Cells were cultured using one of the combinations of conditions described in the preceding paragraph for 16 hours. […] Cell specimens were rinsed twice with PBS and then fluorescence measured with excitation at 360 nm and emission detected at 460 nm to measure DNA content. […]

PCSK9-WT protein = biological target: T2, PCSK9-WT protein (Homo sapiens, UniProt Q8NBP7); experiment: Cellular diI-LDL uptake in HuH7 cells with PCSK9-WT; format: cell-based; conditions: HuH7, 1.0 μg/ml PCSK9-WT, 100 uM peptide (FIG. 2)
T2 construct: V5
T2 sequence (Q8NBP7 153-692): as the sequence (Q8NBP7 153-692 D374Y) above, with Y222D counted along it
Procedure: HuH7 cells were incubated in a 96-well plate for a total of 20 h in the absence (Cnt) or presence of 1.0 μg/ml PCSK9-WT protein alone (WT) or mixed with 100 uM of various SRX peptides. After 16 h, dil-LDL (5 ug/ml) was added to the incubation mixtures. After 4 h, fluorescence was measured (Ex: 520 nm/Em: 575 nm; cutoff: 550 nm). Dil-LDL uptake is calculated as RFU corrected for the number of cells.
LDL internalization was measured by uptake of a fluorescently tagged LDL molecule (diI-LDL) in the absence of exogenous PCSK9 (Cnt), in the presence of exogenous PCSK9 (normal PCSK9=WT, D374Y mutant PCSK9=DY), or in the presence of PCSK9 and a tested peptide (indicated as SRX##, or SRX if a single peptide results is shown in a graph).
Cells, such as HepG2, HuH7, FL83B or a cell line transfected with a short-hairpin PCSK9 knockdown sequence such as HepG2/shPCSK9, HuH7/shPCSK9, FL83B/shPCSK9, were seeded at 2×10^4 cells/well in a 96-well plate and cultured at 37 degC in RPMI+10% FBS. After approximately 24 hours, the cell media was aspirated off and replaced with RPMI+3-5 mg/mL LPDS (Lipoprotein Deficient Serum, Millipore) media for further experimentation. Benjannet et al., “Effects of the prosegment and pH on the activity of PCSK9: evidence for additional processing events” J Biol Chem. 285(52): 40965-40978 (2010).
Peptide activity was assessed by culturing cells with: i) no SRX peptide/PCSK9 protein complex (control, Cnt); ii) PCSK9 protein; and iii) SRX peptide/PCSK9 complex. Various permutations of these experimental conditions were also used, including: i) the addition of wild type PCSK9 (WT); ii) a mutant PCSK9 (e.g., D374Y mutant PCSK9, DY); iii) various SRX peptides and/or PCSK9 at the same concentration and/or combinations; iv) various SRX peptides and/or PCSK9 at different concentrations and/or combinations; v) the use of different cells, as mentioned above, with or without a transfected short-hairpin sequence; vi) a pre-incubation of the PCSK9 and SRX peptide (e.g., 1, hour, 2 hours, 3 hours, 4 hours etc.); vii) various temperatures including, but not limited to, body temperature (e.g., 37° C.), supraphysiologic temperature (e.g., 39° C.); and viii) with/without agitation (e.g., shaker or gentle periodic vortexing).
Cells were cultured using one of the combinations of conditions described in the preceding paragraph for 16 hours. After 16 hours, a quantity of diI-LDL (Low density lipoprotein coupled with 1,1′-dioctadecyl-3,3,3′,3′-tetramethylindocarbocyanine perchlorate) needed to bring the media concentration to 5 ug/mL of diI-LDL was added to the culture well and cells continued to be cultured under these new conditions for 4 additional hours. At the end of the 4-hour incubation period (20 total hours of cell culture), the cellular uptake was halted with the addition of 4% formaldehyde in 10 uM Hoechst 33342 in a solvent such as deionized autoclaved water or PBS, and specimens were incubated at 20° C. for 20 minutes. Cell specimens were rinsed twice with PBS and then fluorescence measured with excitation at 360 nm and emission detected at 460 nm to measure DNA content. Cell specimens were then be incubated with a 0.1% SDS in a 0.1 N NaOH solution while being shaken for 10 minutes. Fluorescence of the diI-LDL in the specimens were quantified using excitation at 530 nm and resulting emission at 580 nm.
Fluorescence measurements of diI-LDLR were normalized to estimated cell numbers, determined from the Hoechst fluorescence. Data was analyzed for the different experimental conditions and reported as percentage relative fluorescence units (RFU) of the Cnt specimen. Percent inhibition was calculated as the difference in RFU of a peptide exposed specimen to the RFU of PCSK9-no peptide, divided by the RFU difference in PCSK9-no peptide to RFU of Cnt specimen, also expressed as [(SRX:RFU)−(PCSK9-no peptide:RFU)]/[(PCSK9-no peptide:RFU)−(Cnt:RFU)]×100.

normal PCSK9 (WT) [2] = biological target: T1, normal PCSK9 (WT); experiment: Cellular diI-LDL uptake in HepG2 cells with WT PCSK9; format: cell-based; conditions: HepG2, WT 1.2 ug/ml, pre-incubated 3 hrs at 37 C, dose dependent manner (FIG. 6)
Procedure: as §1, §2, §3, §4

Measured: LDL internalization (dil-LDL % uptake vs Cnt)

T1 sequence (Q8NBP7 153-692): as the sequence (Q8NBP7 153-692 D374Y) above, with Y222D counted along it

Val-Tyr-Val-Arg-Phe-Trp (VYVRFW; not fully specified (C-terminus); printed as Val-Tyr-Val-Arg-Phe-Trp) [Compound 1]
positively modulated (increased): normal PCSK9 (WT) [1] | PCSK9 GOF-D374Y protein; HepG2, 2 μg/ml PCSK9 GOF-D374Y, dose dependent manner (FIG. 5) | PCSK9 GOF-D374Y protein; HepG2, D374Y 0.6 ug/ml, pre-incubated 3 hrs at 37 C, dose dependent manner (FIG. 6) | PCSK9-WT protein | normal PCSK9 (WT) [2]

— patent US10287317B2, “Proprotein convertase subtilisin kexin type 9 (PCSK9) allosteric binding ligands to modulate serum low density lipoprotein (LDL) levels” (SRX Cardio, LLC, priority 2013, dated 2019)
